# From patent US11091559B2, “Anti-ALK antibodies and methods for use thereof” (Celldex Therapeutics, Inc., priority 2015, dated 2021)
# Where a chain is given by its changes, count along the chain named.
# B1: Ab325: anti-ALK monoclonal antibody; VL SEQ ID NO: 405, VH SEQ ID NO: 406 (antibody, V domains shown)
# VH: QVQLQQSGAELVKPGASVKISCKASGYAFSSYWMNWVKQRPGKGLEWIGQIYPGDGDTNYNGKFKGKATLTADKSSSTAYMQLSSLTSEDSAVYFCARWYYGSYYAMDYWGQGTSVTVSS
# VL: DIQMTQTTSSLSASLGDRVTISCRASQDISNYLNWYQQKPDGTVKLLIYYTSRLHSGVPSRFSGSGSGTDYSLTISNLEQEDIATYFCQQGNTLPRTFGGGTKLEIKR
# modifications: VH domain - Ab325; VL domain - Ab325
# B2: Ab329: anti-ALK monoclonal antibody; VL SEQ ID NO: 413, VH SEQ ID NO: 414 (antibody, V domains shown)
# VH: QVQLKESGPGLVKPSATLSLTCTVSGFSLTSYHVCWIRQTPGKGLEWMGVIWGDGRTTYNPPLKSRLSISRDTSKSQVFLKMSSLKTEDTATYYCARATMTGHGDAWGQGASVTVSS
# VL: DIQMTQSPASLSASLEEIVTITCQASQDIDNYLSWYQQKPGKSPHLLIHSATSLADGVPSRFSGGRSGTQFSLKINRLQVEDTGIYYCLQHYSGWTFGGGTKLELKR
# modifications: VH domain - Ab329; VL domain - Ab329
# B3: Ab332: anti-ALK monoclonal antibody; VL SEQ ID NO: 419, VH SEQ ID NO: 420 (antibody, V domains shown)
# VH: EVQLQQSGPELVKPGTSVKISCKASGYTFTDYYMNWMKQSHGKSLEWIGDINPNNGVTSYNQKFKGKATLTVDKSSSTAYMELRSLTSEDSAVYYCAREDYGSNYFDYWGQGTTLTVSS
# VL: DIVLTQSPASLAVSLGQRATISCKASQSVDYDGDSYMNWYQQKPGQPPKLLIYAASNLESGIPARLSGSGSGTDFTLNIHPVEEEDAATYYCQQSNEDPPTFGGGTKLEIRR
# modifications: VH domain - Ab332; VL domain - Ab332
# B4: Ab322: anti-ALK monoclonal antibody; VL SEQ ID NO: 399, VH SEQ ID NO: 400 (antibody, V domains shown)
# VH: QVQLQQSGAELAKPGASVKLSCKASGYTFTNYWMHWVKQRPGQGLEWIGYINPSSGYTKYNQKFKDKATLTADKSSSTAYMQLSSLTYEDSAVYYCARDYYGSSSWFAYWGQGTLVTVSA
# VL: DIVMTQSQRFMSTSVGDRVSVTCKASQNVGTNVAWYQQKPGQSPKALIYSASYRYSGVPDRFTGSGSGTDFTLTVSNVQSEDLAEYFCQQYNSYPYMYTFGGGTKLEIKR
# modifications: VH domain - Ab322; VL domain - Ab322
# B5: Ab328: anti-ALK monoclonal antibody; VL SEQ ID NO: 411, VH SEQ ID NO: 412 (antibody, V domains shown)
# VH: B4 VH with N31S, Y88F
# VL: B4 VL with R9K, Q42H, V75I, Q90R, Y98F
# modifications: VH domain - Ab328; VL domain - Ab328
# B6: Ab320: anti-ALK monoclonal antibody; VL SEQ ID NO: 395, VH SEQ ID NO: 396 (antibody, V domains shown)
# VH: QVQLQQSGAELVKPGASVKISCKASGYAFSSYWMNWVKQRPGKGLEWIGQIYPGDGDTNYNGKFKGKATLTADKSSSTAYMQLSSLTSEDSAVYFCASYYYGSKAYWGQGTLVTVSA
# VL: DIQMTQSPASLAASVGETVTITCRASENIYYSLAWYQQKQGKSPQLLIYNANSLEDGVPSRFSGSGSGTQYSMKINSMQPEDTATYFCKQAYDVPFTFGSGTKLEIKR
# modifications: VH domain - Ab320; VL domain - Ab320
# B7: Ab437: humanized anti-ALK antibody; VL SEQ ID NO: 428, VH SEQ ID NO: 431 (antibody, V domains shown)
# VH: EVQLVQSGAEVKKPGTSVKLSCKASGYTFTSSAMQWVKQAPGQGLEWIGYIKPSSGYTKYNQKFKDKATLTADKSTSTAYMELSSLRSEDTAVYYCARDYYGSSSWFAYWGQGTLVTVSS
# VL: EIVMTQSQATMSTSVGERATLSCKASQNVGTNVAWYQQKPGQSPKALIYGASTRATGVPARFSGSGSGTDFTLTISSVEPEDFAVYYCQQYNSYPYMYTFGQGTKLEIK
# modifications: VH domain - Ab353; VL domain - Ab435
# B8: Ab352: humanized anti-ALK antibody; VL SEQ ID NO: 421, VH SEQ ID NO: 430 (antibody, V domains shown)
# VH: B7 VH with A9P, S32Y, A33W, Q35H, K38R, P41R, G44R, K67R
# VL: EIVMTQSPAFLSVTPGEKVTITCKASQNVGTNVAWYQQKPDQAPKALIYSASYRYSGVPSRFSGSGSGTDFTLTISSLEAEDAATYYCQQYNSYPYMYTFGQGTKLEIK
# modifications: VH domain - Ab352; VL domain - Ab351
# B9: Ab355: humanized anti-ALK antibody; VL SEQ ID NO: 421, VH SEQ ID NO: 433 (antibody, V domains shown)
# VH: B7 VH with E1Q, K12A, T16A, S32Y, A33W, Q35H, S84R, E89D
# VL: B8 VL
# modifications: VH domain - Ab355; VL domain - Ab351
# B10: Ab330: anti-ALK monoclonal antibody; VL SEQ ID NO: 415, VH SEQ ID NO: 416 (antibody, V domains shown)
# VH: EVQVVETGGGVVQPGKSLEITCATSGLTFSTAWMYWVRQSSDRRLEWIARIKDKSNKFASDYVESVRGRFTISRDDSRSSVYLQMNNLKEEDTATYYCTTSYGYAWGQGVMVTVSS
# VL: DIQMTQSPSSMSASLGDRVTITCQASQDIGNYLIWFQQKPGKSPRPLIYYATNLANGVPSRFSGSRSGSEYSLTITSLESEDMADYHCLQYKQHLTFGSGTKLEIER
# modifications: VH domain - Ab330; VL domain - Ab330
# B11: Ab331: anti-ALK monoclonal antibody; VL SEQ ID NO: 417, VH SEQ ID NO: 418 (antibody, V domains shown)
# VH: B10 VH with K57N
# VL: B10 VL with V19I
# modifications: VH domain - Ab331; VL domain - Ab331
# Columns and labels:
# [1] = biological target: murine ALK (purified mouse ALK antigen) (Mus musculus, UniProt P97793); test: Mouse ALK cross-reactivity, solid-state ELISA; format: binding; set-up: key: − none; + weak; ++ moderate; +++ strong; settings: cross-reactivity with murine ALK
# murine ALK (purified mouse ALK antigen), sequence (P97793 19-1042 limits assumed): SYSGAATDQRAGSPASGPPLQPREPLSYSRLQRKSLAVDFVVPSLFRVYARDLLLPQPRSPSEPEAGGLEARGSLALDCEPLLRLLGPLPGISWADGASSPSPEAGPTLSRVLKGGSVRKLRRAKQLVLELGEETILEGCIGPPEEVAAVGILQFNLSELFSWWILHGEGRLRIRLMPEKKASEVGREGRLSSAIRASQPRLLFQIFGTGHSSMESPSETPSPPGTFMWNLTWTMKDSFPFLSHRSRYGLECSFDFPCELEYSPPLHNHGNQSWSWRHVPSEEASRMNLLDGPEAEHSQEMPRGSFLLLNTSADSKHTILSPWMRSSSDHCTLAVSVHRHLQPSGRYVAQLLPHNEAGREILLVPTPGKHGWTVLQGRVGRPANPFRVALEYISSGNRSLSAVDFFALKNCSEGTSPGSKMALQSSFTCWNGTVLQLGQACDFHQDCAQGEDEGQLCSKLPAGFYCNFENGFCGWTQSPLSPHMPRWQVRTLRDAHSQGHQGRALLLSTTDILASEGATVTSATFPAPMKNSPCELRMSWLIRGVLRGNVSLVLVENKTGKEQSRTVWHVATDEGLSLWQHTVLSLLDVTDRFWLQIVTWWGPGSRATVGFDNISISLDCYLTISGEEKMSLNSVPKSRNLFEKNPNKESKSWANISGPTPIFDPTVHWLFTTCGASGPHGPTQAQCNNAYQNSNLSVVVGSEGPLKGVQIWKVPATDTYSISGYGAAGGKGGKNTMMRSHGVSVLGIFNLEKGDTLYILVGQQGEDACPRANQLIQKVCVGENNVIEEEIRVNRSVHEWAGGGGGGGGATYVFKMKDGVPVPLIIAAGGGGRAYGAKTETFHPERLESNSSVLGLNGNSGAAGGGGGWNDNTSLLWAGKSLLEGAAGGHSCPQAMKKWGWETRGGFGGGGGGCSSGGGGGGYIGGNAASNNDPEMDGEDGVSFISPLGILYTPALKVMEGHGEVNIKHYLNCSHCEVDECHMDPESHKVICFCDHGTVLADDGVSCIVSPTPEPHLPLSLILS
# Procedure: Purified mAbs were evaluated for their ability to bind murine ALK by solid-state ELISA, or flow cytometry on Neuro-2a cells that express low levels of endogenous murine ALK. […]
# [2] = biological target: C-terminal region of human ALK ECD (T637-S1038) (Homo sapiens, UniProt Q9UM73); test: Competitive binding assay (epitope binning) by flow cytometry; settings: antibodies to the C-terminal region
# C-terminal region of human ALK ECD (T637-S1038), sequence (Q9UM73 19-1620): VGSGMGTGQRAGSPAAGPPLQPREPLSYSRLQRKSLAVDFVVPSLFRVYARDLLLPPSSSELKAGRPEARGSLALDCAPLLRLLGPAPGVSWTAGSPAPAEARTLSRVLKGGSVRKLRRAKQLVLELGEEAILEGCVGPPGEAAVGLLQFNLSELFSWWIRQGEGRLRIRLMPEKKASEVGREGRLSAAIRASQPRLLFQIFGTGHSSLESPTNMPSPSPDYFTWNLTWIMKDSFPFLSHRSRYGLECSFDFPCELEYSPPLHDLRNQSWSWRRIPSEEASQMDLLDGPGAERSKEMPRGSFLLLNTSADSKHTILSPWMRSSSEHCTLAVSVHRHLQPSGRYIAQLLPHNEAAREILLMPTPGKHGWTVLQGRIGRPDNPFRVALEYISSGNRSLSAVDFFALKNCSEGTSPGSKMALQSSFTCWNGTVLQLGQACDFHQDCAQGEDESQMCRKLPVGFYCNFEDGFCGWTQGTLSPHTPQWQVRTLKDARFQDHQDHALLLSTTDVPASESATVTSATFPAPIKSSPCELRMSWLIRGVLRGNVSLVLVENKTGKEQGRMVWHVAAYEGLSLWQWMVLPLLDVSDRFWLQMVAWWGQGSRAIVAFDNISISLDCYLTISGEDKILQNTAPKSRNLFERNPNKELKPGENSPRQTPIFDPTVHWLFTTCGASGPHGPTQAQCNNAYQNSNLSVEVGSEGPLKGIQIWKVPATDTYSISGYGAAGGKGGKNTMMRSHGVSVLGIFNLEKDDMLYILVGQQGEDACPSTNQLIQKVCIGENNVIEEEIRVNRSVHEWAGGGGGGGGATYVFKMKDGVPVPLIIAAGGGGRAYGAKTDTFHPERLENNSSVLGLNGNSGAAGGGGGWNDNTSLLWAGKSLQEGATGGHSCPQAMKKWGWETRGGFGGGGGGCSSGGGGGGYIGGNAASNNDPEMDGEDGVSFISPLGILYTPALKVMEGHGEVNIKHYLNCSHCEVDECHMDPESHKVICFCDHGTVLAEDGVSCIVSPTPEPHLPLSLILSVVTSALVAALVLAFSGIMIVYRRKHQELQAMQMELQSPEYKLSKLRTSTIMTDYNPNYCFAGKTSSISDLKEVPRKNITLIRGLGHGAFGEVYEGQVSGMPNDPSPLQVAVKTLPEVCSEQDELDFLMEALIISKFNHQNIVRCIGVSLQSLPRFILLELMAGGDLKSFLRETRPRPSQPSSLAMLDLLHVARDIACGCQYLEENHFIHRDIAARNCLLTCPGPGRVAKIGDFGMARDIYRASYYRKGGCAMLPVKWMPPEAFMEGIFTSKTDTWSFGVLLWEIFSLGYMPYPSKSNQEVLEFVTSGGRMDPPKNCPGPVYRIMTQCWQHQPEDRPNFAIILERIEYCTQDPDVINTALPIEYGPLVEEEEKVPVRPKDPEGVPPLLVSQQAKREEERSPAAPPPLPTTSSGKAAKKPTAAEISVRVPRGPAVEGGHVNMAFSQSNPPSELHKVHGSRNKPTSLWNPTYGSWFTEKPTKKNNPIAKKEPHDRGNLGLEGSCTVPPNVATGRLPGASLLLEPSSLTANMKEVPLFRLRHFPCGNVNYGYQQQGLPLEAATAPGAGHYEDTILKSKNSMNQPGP
# Procedure: Antibodies that bind to the C-terminal region of human ALK ECD (T637-S1038) were further characterized using a competitive binding assay. A pairwise matrix approach was used whereby each antibody was fluorescently labeled and tested for its ability to bind to ALK-expressing cells pre-incubated with an unlabeled antibody. The ability of both antibodies to bind the C-terminal domain simultaneously was tested via flow cytometry. If both antibodies bound simultaneously, they were put into different bins and considered to belong to a separate epitope class.
# [3] = tested on: ALK (total protein levels in NB1 cells); test: ALK turnover (total protein levels) by Western blot, 24 hour treatment of NB1 cells; format: cell-based, human; set-up: key: − none; + weak; ++ moderate; +++ strong
# Text: FIG. 5 depicts a Western blot of a panel of ALK antibodies.
# See also Table 18, below.
# [4] = tested on: ALK (basal phosphorylation in NB1 cells); test: Western blot of ALK phosphorylation in NB1 cells; format: cell-based, human; settings: effect in words
# Procedure: Lysed cells were subjected to SDS-PAGE, transferred to nitrocellulose and immunoblotted with antibodies against total, and phospho-specific ALK, AKT, and MAPK. FIG. 4B depicts an ELISA of NB1 cells grown in media with reduced serum and treated with 30-100 nM of each antibody for 1-2 hours. Cell lysates were incubated on ELISA plates with an anti-ALK antibody, followed by incubation with a pan phosphotyrosine antibody coupled to HRP.
# Cell lysates were subjected to SDS-PAGE and transferred to nitrocellulose. Immunoblotting was performed with antibodies against total, and phospho-specific ALK, AKT, and MAPK (purchased from Cell Signaling and utilized per manufacturer's instructions). HRP (horse radish peroxidase)-conjugated secondary antibodies (Thermo Scientific, Waltham, Mass.) were used along with Supersignal West Pico Chemiluminescent Substrate (Thermo Scientific, Waltham, Mass.) to image blots.
# Anti-ALK monoclonal antibodies generated in Example 1 were evaluated via Western blotting for their ability to activate or inhibit basal levels of ALK phosphorylation in NB1 cells (FIG. 4A). A subset of ALK antibodies stimulated ALK tyrosine phosphorylation and a different subset of antibodies inhibited basal levels of ALK phosphorylation. See also Table 18, below. […] That is, ALK antibodies that stimulated ALK tyrosine phosphorylation increased MAPK and AKT phosphorylation, whereas ALK antibodies that inhibited ALK tyrosine phosphorylation decreased basal levels of MAPK and AKT phosphorylation (FIG. 4A). Similar results were obtained in ELISA-based ALK phosphorylation assays from lysates of NB1 cells treated with ALK antibodies (FIG. 4B).
# [5] = biological target: human ALK (hALK, purified ALK protein) (Homo sapiens, UniProt Q9UM73); test: Monovalent affinity of humanized antibodies, BLitz System, human ALK; format: binding; settings: BLitz, purified ALK protein at 70 μg/mL, single binding site fit; antibody by plate position of Table 19
# Procedure: The humanized ALK antibodies designed in Example 1 were tested for monovalent affinity, wherein the kinetic data are fit to a single binding site equation to obtain relative affinity values.
# Kinetic measurements of the monovalent affinity of the 96 humanized ALK antibody variants (Ab351-Ab446) were collected. Affinity ranking was performed using a BLitz® System (ForteBio, Menlo Park, Calif.). Humanized anti-ALK antibodies were immobilized at 0.5 mg/mL using Protein A tips. Once baseline stability was ensured, purified ALK proteins at 70 μg/mL were added. The resulting kinetic data were fit to a single binding site equation, from which the quoted monovalent KD values were derived.
# (§1) Amino acid residues that differ between rat ALK and mouse ALK are boxed. KD values for both NB1 (human) cells and Neuro2a (mouse) cells were also determined.
# [6] = tested on: ALK on the surface of NB1 cells; test: KD determination by flow cytometry on NB1 cells; format: binding; settings: NB1 (human) cells, FACS, mean
# Procedure: FIG. 3 depicts the apparent affinities (KD) of ALK antibodies for ALK expression on the surface of NB1 cells. KD was determined by flow cytometry. Titration of each antibody on NB1 cells for 2-4 hours at 4° C. was followed by incubation with a fluorescently-labeled secondary antibody. The normalized mean fluorescent intensity […] shown as “% Max binding” was plotted as a function of antibody concentration.
# Flow cytometry was utilized to measure the affinity at steady state (KD) with which different ALK antibodies bind to ALK on the surface of NB1 cells (FIG. 3). Titration of each antibody on NB1 cells for 2-4 hours at 4° C. was followed by incubation with a fluorescently-labeled secondary antibody. The normalized mean fluorescent intensity (MFI) shown as “% Max binding” was plotted as a function of antibody concentration. The data were fit to a one site binding isotherm using GraphPad Prism, from which affinity values were derived.
# as §1
# [7] = biological target: T1, cell surface mALK on Neuro2a cells (Mus musculus, UniProt P97793); test: KD of humanized antibodies on Neuro2a (mouse) cells; format: binding; settings: FACS, mean
# T1 construct: Neuro-2a cells that express low levels of endogenous murine ALK; endogenous in cells; host or cells: Neuro-2a (Neuro2a) mouse neuroblastoma cells
# T1 sequence (P97793 19-1621): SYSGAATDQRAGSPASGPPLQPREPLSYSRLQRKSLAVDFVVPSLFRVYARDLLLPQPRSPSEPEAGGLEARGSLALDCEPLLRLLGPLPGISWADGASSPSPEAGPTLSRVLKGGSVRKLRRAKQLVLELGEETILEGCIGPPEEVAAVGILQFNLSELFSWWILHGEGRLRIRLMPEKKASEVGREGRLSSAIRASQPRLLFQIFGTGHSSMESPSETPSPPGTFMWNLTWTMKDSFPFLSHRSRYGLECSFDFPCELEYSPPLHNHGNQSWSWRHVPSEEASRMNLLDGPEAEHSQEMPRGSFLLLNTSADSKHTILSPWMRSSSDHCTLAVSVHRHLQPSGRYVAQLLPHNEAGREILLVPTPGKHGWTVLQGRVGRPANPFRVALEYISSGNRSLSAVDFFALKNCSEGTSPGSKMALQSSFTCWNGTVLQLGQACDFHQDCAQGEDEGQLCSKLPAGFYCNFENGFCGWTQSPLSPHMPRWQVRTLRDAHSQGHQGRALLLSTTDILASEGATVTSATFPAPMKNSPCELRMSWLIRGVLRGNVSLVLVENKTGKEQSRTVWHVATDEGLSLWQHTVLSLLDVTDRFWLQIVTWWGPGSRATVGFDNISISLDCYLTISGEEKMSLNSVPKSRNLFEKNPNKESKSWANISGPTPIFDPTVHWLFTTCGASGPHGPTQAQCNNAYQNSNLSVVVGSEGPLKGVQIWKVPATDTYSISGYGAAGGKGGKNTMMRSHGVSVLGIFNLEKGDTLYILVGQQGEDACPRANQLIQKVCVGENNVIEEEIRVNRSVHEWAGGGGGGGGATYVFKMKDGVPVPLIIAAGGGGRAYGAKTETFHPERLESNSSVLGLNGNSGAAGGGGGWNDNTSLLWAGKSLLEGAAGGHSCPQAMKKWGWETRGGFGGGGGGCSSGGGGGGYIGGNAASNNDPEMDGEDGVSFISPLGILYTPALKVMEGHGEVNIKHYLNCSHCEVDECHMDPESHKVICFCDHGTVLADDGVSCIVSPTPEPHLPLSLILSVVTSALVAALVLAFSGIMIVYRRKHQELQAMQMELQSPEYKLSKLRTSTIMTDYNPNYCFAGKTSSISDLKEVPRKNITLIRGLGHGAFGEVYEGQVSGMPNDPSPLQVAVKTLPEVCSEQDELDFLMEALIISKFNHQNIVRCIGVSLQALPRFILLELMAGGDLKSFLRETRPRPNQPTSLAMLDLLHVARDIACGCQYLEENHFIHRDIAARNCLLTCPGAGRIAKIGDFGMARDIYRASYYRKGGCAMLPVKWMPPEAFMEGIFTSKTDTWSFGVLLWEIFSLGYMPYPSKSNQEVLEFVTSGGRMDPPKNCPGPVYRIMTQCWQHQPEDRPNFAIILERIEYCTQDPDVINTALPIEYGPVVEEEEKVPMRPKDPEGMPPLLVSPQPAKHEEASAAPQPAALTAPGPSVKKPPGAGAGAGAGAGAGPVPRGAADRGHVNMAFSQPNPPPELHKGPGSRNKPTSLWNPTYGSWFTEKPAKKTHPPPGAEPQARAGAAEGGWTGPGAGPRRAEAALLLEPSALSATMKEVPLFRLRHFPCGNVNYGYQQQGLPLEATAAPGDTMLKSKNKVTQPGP
# Procedure: as §1
Molecule,mouse ALK binding [1],Bin/Domain (bin) [2],ALK turnover [3],ALK phosphorylation [4],Kd [5] [µM],Kd [6] [µM],Kd [7] [µM]
B1,+,1,++,,,,
B2,+++,,,weak agonist,,,
B3,+,,,weak agonist,,,
B4,−,2,−,inhibitor,,,
B5,+++,2,+++,weak agonist,,,
B6,++,1,−,no effect,,,
B7,,,,,6080,,
B8,,,,,,0.0014,0.0077
B9,,,,,,0.00126,0.0051
B10,+,,,inhibitor,,,
B11,−,,,inhibitor,,,
